The values below come from US9803013B2, “Biological materials and uses thereof” (BioInvent International AB, priority 2005, dated 2017).

Common to all, as to type: in vivo, mouse
In test [1] the test system is RPMI-8226 myeloma cells. In words: Advanced disseminated MM model, i.v. grafted RPMI-8226 in SCID mice. Conditions: 2 mg/kg from five days after i.v. grafting; compared to bortezomib, lenalidomide, melphalan or dexamethasone. The source says: To assess the therapeutic potential of BI-505 for treatment of MM, the anti-myeloma effects of BI-505 were compared to current gold-standard treatment in disseminated experimental models of MM sharing characteristics with human disease. These models resemble the manifestation and progression of human MM disease in many respects, including tumor dissemination and establishment in bone marrow, and the appearance of osteolytic bone-lesions and hypercalcemia (Mitsiades et al., 2003; Yaccoby et al., 1998). Firstly, the anti-myeloma activity of BI-505 was compared with currently used treatments in an advanced disseminated MM model comprising RPMI-8226 myeloma cells. In this model, therapeutic treatment with 2 mg/kg BI-505 was started five days after intravenous grafting of MM cells to allow for homing and establishment of MM cells in bone marrow.
All studies were conducted in accordance with guidelines of the Lund University Hospital, Sweden or University of Utah, Salt Lake City, USA following approval from the local ethical committee for animal care and use. […] The role of macrophages and NK cells for BI-505 in vivo antitumor activity was assessed using anti-asialo antibody treatment, clodronate liposome treatment or NK-cell deficient mice. […]

In test [2] the test system is NCI-H929. Put plainly: SCID/xenograft MM model, subcutaneous. Conditions: NCI-H929 (ICAM-1+), 2 mg/kg twice weekly from one day after tumor cell injection. The method, then: (§1) Since high expression of the BI-505 epitope in human MM was found, BI-505 was screened for in vivo anti-myeloma activity using SCID/xenograft models comprising four well-characterized MM cell-lines. […] Twice weekly dosing with 2 mg/kg of BI-505 starting one day after tumor cell injection reduced myeloma tumor growth in mice xenografted with ICAM-1-expressing cell lines EJM, RPMI-8226, and NCI-H929 by 98%, 96%, and 99%, respectively (FIGS. 17A and B).
(§2) All studies were conducted in accordance with guidelines of the Lund University Hospital, Sweden or University of Utah, Salt Lake City, USA following approval from the local ethical committee for animal care and use. BI-505 efficacy and potency was examined in subcutaneous and disseminated, prophylactic and therapeutic, experimental MM models comprising myeloma cell lines RPMI-8226, U266, EJM and OPM-2. The in vivo efficacy of BI-505 was compared to clinically approved drugs dexamethasone, melphalan, bortezomib and revlimid used at clinically relevant doses in therapeutic disseminated models comprising RPMI-8226 or primary patient myeloma cells, the latter following injection of patient cells in implanted of human fetal bone in SCID mice. For subcutaneous grafting, 1-5×10^6 tumor cells (RPMI-8226, NCI-H929, EJM, OPM-2, ARH-77, or Daudi) were subcutaneously injected at a volume of 100 μl into the left flank of anesthetized mice as described in the Supplemental Information. […] Treatment with saline, isotype control IgG, bortezomib, lenalidomide, dexamethasone, or BI-505 started on day 5 (RPMI-8226). Treatment with melphalan started on day 10. BI-505 or isotype IgG mAb was administered i.v. at 2 mg/kg/inj twice weekly for 8 weeks; bortezomib at 1 mg/kg/inj once weekly for 8 weeks; lenalidomide orally at 2 mg/kg/inj for 2 cycles consisting of 5 days of treatment and 2 days of wash out; melphalan i.v. at 3 mg/kg/inj once weekly for 8 weeks; and dexamethasone at 6 mg/kg/inj three times weekly for 2 weeks. […] The role of macrophages and NK cells for BI-505 in vivo antitumor activity was assessed using anti-asialo antibody treatment, clodronate liposome treatment or NK-cell deficient mice. […]
(§3) Treatment with antibodies by intraperitoneal injection started either 1 day after cell inoculation (prophylactic model) or when tumors reached approximately 100 mm^3 (established model). […] Macrophage and NK cell depletion was assessed upon termination of tumor bearing mice exposed to effector cell depleting agents (see above), spleens were removed and splenocytes isolated by mincing through a cell strainer (70 μm nylon mesh, BD Falcon 352350), erythrocytes were removed by lysis according to manufacturer (BD Pharm Lyse 555899, BD Biosciences).

For test [3], the system named is RPMI-8226. Put plainly: SCID/xenograft MM model, subcutaneous. Conditions: RPMI-8226 (ICAM-1+), 2 mg/kg twice weekly from one day after tumor cell injection. The method, then: as §1, §2, §3
In test [4] the test system is EJM. Put plainly: SCID/xenograft MM model, subcutaneous. Conditions: EJM (ICAM-1+), 2 mg/kg twice weekly from one day after tumor cell injection. The protocol: as §1, §2, §3
Test [5] deals with OPM-2. Put plainly: SCID/xenograft MM model, subcutaneous. Conditions: ICAM-1-negative OPM-2, 2 mg/kg twice weekly. The protocol:
as §1, §2, §3

B1: B11: fully human IgG1 antibody specific for ICAM-1; VH and VL sequences of FIG. 10 (SEQ ID NOs. 6 and 8) (antibody, listed as Homo sapiens, V domains shown)
VH: EVQLLESGGGLVQPGGSLRLSCAASGFTFSNAWMSWVRQAPGKGLEWVAFIWYDGSNKYYADSVKGRFTISRDNSKNTLYLQMNSLRAEDTAVYYCARYSGWYFDYWGQGTLVTVSS
VL: QSVLTQPPSASGTPGQRVTISCTGSSSNIGAGYDVHWYQQLPGTAPKLLIYDNNNRPSGVPDRFSGSKSGTSASLAISGLRSEDEADYYCQSYDSSLSAWLFGGGTKLTVLG
B1: the “survival and disease onset” value in test [1] is “significantly enhanced survival and delayed disease onset”. Besides, the “reduction of myeloma tumor growth” value in test [2] is listed as 99%; in test [3], 96%; in test [4] it was 98%. In addition, the “tumor growth” value in test [5] is listed as “did not affect tumor growth”.
